The results in this text go back to patent US20240218057A1 (ROCKEFELLER UNIVERSITY, published 2024).

The target in this assay is T1, SARS-COV-2 RBD (SARS-COV-2, UniProt P0DTC2 319-539).
T1 construct: also called WT RBD
The experiment in a line: ELISA, RBD coated on plate.

Substitutions are numbered along the chain they refer to.

B1: C940 (antibody, V domains shown)
VH: QVQLQESGSGLVKPSQTLSLTCAVSGGSASSGGYSWSWIRQPPGKGLEWIGYIYHSGSTYYNPSLKSRVTISLDRTKKQFSLKLSSVTAADTAVYYCARFCLSGSHYLFAFDIWGPGTMVTVSS
VL: QSALTQPASVSGSPGQSITISCTATSSDVGGYNFVSWYQQYPGKVPKLLIYDVGNRPSGVSNRFSGSKSGNTASLTISGLQAEDEADYYCSSYTNSSTFFGGGTKLTVL
Regarding B1, it took 1.8 ng/mL to reach a half-maximal effect (EC50).

B2: C1028 (antibody, V domains shown)
VH: QVQLVESGGGVVQPGRSLRLSCADSGFTFSSSGMHWVRQAPGKGLEWVGVISYDGGNKYYADSVKGRFTISRDNSKNTLYLQMNSLRAEDTAVYYCAKDTPGGDDIMTGWGLYGMDVWGQGTTVTVSS
VL: DIQMTQSPSSLSASVEDRVTITCRASQSISSYLNWYQQKPGKAPKLLIYAAISLQSGVPSRFSGSGSGTEFTLTISSLQPEDFATYYCQQSYTTPWAFGQGTKVEIK
For B2, the EC50 worked out at 3.58 ng/mL.

B3: C1033 (antibody, V domains shown)
VH: QVQLVQSGAEVKKPGSSVKVSCKASGGTFSRNVISWVRQAPGQGLEWMGGIIPMFGTANYAQKFQGRVTISADESTSTAYMELSSLRSEDTAVYYCAREDFILESAPIRENSYYYYGMDVWGQGTTVTVSS
VL: EIVLTQSPGTLSLSPGERATLSCRASQSVSSNYLAWYQQKPGQAPRLLIYDASSRATGIPDRFSGSGSGTDFTLTIRRLEPEDFAVYYCQQYGGSPRTFGQGTKVEIK
B3 came in with an EC50 of 3.63 ng/mL.

B4: C942 (antibody, V domains shown)
VH: QVQLVESGGGVVQPGRSLRLSCAASGFTFSSYVMHWVRQAPGKGLEWVAIISSDGNTKYYADSVKGRFTISRDNSKNTLYLQMNSVRTDDTAVYYCARDGTTMTPTDLLTDWGQGTLVTVSS
VL: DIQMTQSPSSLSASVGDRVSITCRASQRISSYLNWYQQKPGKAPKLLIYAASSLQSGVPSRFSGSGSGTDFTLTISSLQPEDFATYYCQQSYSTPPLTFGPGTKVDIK
Molecule B4 yielded an EC50 of 1.35 ng/mL.

B5: C951 (antibody, V domains shown)
VH: QVQLQESGPRLVKPSGTLSLTCAVSGGSISTTNWWSWVRQPPGKGLEWIGEIHHSGNTNYNPSLKSRVTISVDRSKNQFSLKLSSVTAADTAVYFCARDGGRPGDPFDIWGQGTMVTVSS
VL: QSALTQPASVSGSPGQSITISCTGTSSDVGGYNYVSWYQQHPGKAPNLMIYDVSDRPSGVSNRFSGSKSGNTASLTISGLQAEDEADYYCNSFTSNSTRVFGTGTKVTV
In turn, B5 had a half-maximal effective concentration (EC50) of 0.81 ng/mL.

B6: C1030 (antibody, V domains shown)
VH: EVQLVESGGGLVQPGGSLRLSCEASGVIVSSNYMNWVRQAPGKGPEWVSVLYAGGSTFYADSVKGRFTISRDDSKNTLFLQMNNLRAEDTAVYFCARDLIAFGMDVWGQGTTVTVSS
VL: DIQLTQSPSFLSASVGDRVTITCRASQGINSDLAWYQQKPGKAPKLLIYGASTLQSGVPSRFSGSGSGTEFSLTVSSLQPEDFATYYCQQLNSYRRFGGGTKVEIK
For B6, the EC50 is 2.78 ng/mL.

B7: C948 (antibody, V domains shown)
VH: EVQLVESGGGLVQPGGSLRLSCAASGFTFSRYDMHWVRQATGKGLEWVSIIGTAGDTYYPGSVKGRFTISRDNAKNSLFLQMNSLRAGDTAVYYCARANYDSSGYHNWFDPWGQGTLVTVSS
VL: DIQMTQSPSSLSASIGDRVTITCRASQNINSYLNWYQQKPGKAPKLLIYAASSLQSGVPSRFSGSGSGTDFTLTINSLQPEDFATYYCQQSYSMPSWTFGQGTKVEI
In turn, B7 had an EC50 of 3.26 ng/mL.

B8: C941 (antibody, V domains shown)
VH: QVQLVQSGAEVKKPGSSVKVSCKASGGTSRSYPISWVRQAPGQGLEWMGRIIPIVGTANYAQRFQGRVTITADESTGTAYMELSSLRSEDTAVYYCARNRGYSDYGSVYYFDYWGQGTLVTVSS
VL: QSVLTQPPSVSGAPGQRVTISCTGSSSNIGAGYDVHWYQQLPGAAPKLLIYRNINRPSGVPDRFSGSKSGTSASLAITGLQADDEADYYCQSYDSSLSGSVFGGGTKLTV
With B8, the EC50 stood at 0.88 ng/mL.

B9: C1031 (antibody, V domains shown)
VH: QLQLQESGPGLVKPSETLSLTCTVSGGSINTSTYYWGWIRQPPGKGLEWIGNIYYSGITYYNPSLKSRVTISVDTSKNQFSLKLRSVTAADTAVYYCARQHRFGSGSSELLWGQGTLVTVSS
VL: QSALTQPPSASGSPGQSVTISCTGTSSDVGSYNYVSWYQQHPGKAPKLMIYEVTKRPSGVPDRFSGSKSGNTASLTVSGLQADDEADYYCSSYAGSSNLVFGGGTKLTV
B9 returned an EC50 of 7.23 ng/mL.

B10: C944 (antibody, V domains shown)
VH: QVQLVESGGGVVQPGRSLRLSCAASGFTFSSYGMHWVRQAPGKGLEWVAVISYDGSYKYYADSVKGRFTISRDNSKNTLYLQMNSLRAEDTAVYYCAKGSGSQLYYYYGMDVWGQGTTVTVSS
VL: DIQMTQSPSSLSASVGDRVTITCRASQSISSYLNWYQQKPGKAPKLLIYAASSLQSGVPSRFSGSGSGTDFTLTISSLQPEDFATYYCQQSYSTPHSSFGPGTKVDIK
Molecule B10 gave an EC50 of 1.71 ng/mL.

B11: C1025 (antibody, V domains shown)
VH: EVQLVESGGGLVQPGRSLRLSCAASGFTFDDYAMHWVRQVPGKGLEWVSGVSWNGDSVGYADSMEGRFTISRDNAKNSLYLQMNSLRTEDTALYYCAKGVDYSSSSNFDFWGQGTLVTVSS
VL: DIQMTQSPSSVSASVGDRVTITCRASQGISSWLAWYQQKPGKAPKLLISLASSLQSGVPSRFSGSGSETDFTLIISSLQPEDFATYYCQQSSSFPLTFGGGTKVEIK
The molecule B11 yielded an EC50 of 2.51 ng/mL.

B12: C1029 (antibody, V domains shown)
VH: QVQLVESGGGVVQPGRSLRLSCAASGFTFSSFGMHWVRQAPGKGLEWVAVISYDGSYKDYGDSVKGRFTISRDNSKNTLYLQMNSLRAEDTAVYYCARDSNVDTVMVTWFDYWGRGTLVTVSS
VL: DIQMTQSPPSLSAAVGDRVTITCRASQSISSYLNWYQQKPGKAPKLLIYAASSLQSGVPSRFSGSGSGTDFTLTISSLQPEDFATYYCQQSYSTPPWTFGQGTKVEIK
As to B12, the midpoint of the response, the EC50, lay at 2.86 ng/mL.

B13: C943 (antibody, V domains shown)
VH: QVQLVESGGGVVQPGRSLRLSCAASGFPFSSFGMHWVRQAPGRGLEWVALILYDGDNKYYADSVKGRFTISRDNSKNTLYLQMNSLRAEDTAVYYCAKDIGGGSSPPFFDYWGQGTLVTVSS
VL: SYELTQAPSVSLAPGKTARITCGENNIGSKSVHWYQQKPGQAPVLVIYYDSDRPSGIPERFSGSNSGNTATLTISRVEAGDEADYYCQVWDSSSDHVMFGGGTKLTVL
Turning to B13, it took 2.59 ng/mL to reach a half-maximal effect (EC50).

B14: C1026 (antibody, V domains shown)
VH: QVQLVESGGGVVQPGKSLRLSCAASGFIFSSYSMHWVRQAPGKGLEWVAVVSNDGSGKFYADSVRGRFTIFRDNSKNTLYLQVSSLRAEDTAVYYCARDALTSISVLFDCWGQGTLVTVSS
VL: DIQMTQSPSSLSASLGDRVTITCRASQSISNYLNWYQQKPGKAPKLLIYGASSLQSGVPSRFSGSGSGTDFTLTISNLQPEDFATYFCQQSYSTPSVTFGGGTKVEIK
B14 showed an EC50 of 2.5 ng/mL.

B15: C945 (antibody, V domains shown)
VH: QVQLVQSGAEVKKPGASVRISCKASGYTFTNYYMHWVRQAPGQGLEWMGIINPSGGSTTYAPKFQARVTMTRDTSTSTVYMELSSLRSDDTAVYYCARDYVLVPARSGMDVWGQGTTVTVS
VL: EIVLTQSPATLSLSPGERATLSCRASQSVSSYLAWYQQKPGQAPRLLIYDASNRATGIPARFSGSGSGTDFTLTISSLEPEDFAIYYCQQRSNWPYTFGQGTKLEIK
In the case of B15, the EC50 is 3.13 ng/mL.

B16: C1041 (antibody, V domains shown)
VH: QVQLVQSGAEVKKPGASVKVSCKASGYTFSDHYIYWVRQAPGQGLEWMGIINPSAGSTSYAQKFQGRVTMTRDTSTSTVYMELSSLRSEDTAVYYCARDIVFVPATMAMDVWGLGTTVTVSS
VL: B15 VL with S31R, I85V, P95L, Y96F, Q100P, L104V, E105D
In the case of B16, it took 3.65 ng/mL to reach a half-maximal effect (EC50).

B17: C1042 (antibody, V domains shown)
VH: B16 VH with A55G, R87K, A97S, L114Q
VL: B15 VL with S31R, I85V, P95L, Y96F, Q100P, L104V, E105D
Take B17: the EC50 turned out to be 4.55 ng/mL.

B18: C946 (antibody, V domains shown)
VH: QVQLVQSGAEVKKPGASVKVSCKASGYTFTNYYIHWVRQAPGQGLEWMGIINPDGDSTSYVQKFQGRVTMTRDTSTSTVYMELSSLRSEDTAVYYCARDLVFVPATSAMDVWGKGTTVTVSS
VL: B15 VL with I85V, P95L, Y96F, Q100P, L104V, E105D
In turn, B18 returned an EC50 of 3.82 ng/mL.

B19: C1032 (antibody, V domains shown)
VH: EVQLVESGGSLVKPGGSLRLSCVASGLTFNHAWMSWVRQAPGKGLEWVGRIKSKIDGGTTDYAAPVKGRFTISRDDSKSTQYLQMNSLKTEDTAVYYCTTDCFWRLGGTTCYEHDAFDVWGQGTMVTVS
VL: DIQMTQSPSSLSASVGDRVTITCRASQAIATFLNWYQQKPGKAPKLLIYAASSLQSGVPSRFSGSGSGTDFTLTISSLQPEDFATYYCQQSYNSLHFGGGTKVEIK
As for B19, the response was half-maximal at 2.89 ng/mL (EC50).

B20: C1027 (antibody, V domains shown)
VH: EVQLVESGGGLVQPGGSLRLSCAASGFIVTTNYMSWVRQAPGKGLEWVSLIYPGGSTFYADSVEGRFTISRDNSKNTLYLQVNSLRVEDTAVYYCARDTFGRGDDHWGQGTLVTVSS
VL: DIQMTQSPSSLSASVGDRVTITCQASQDINIYLNWYQQRPGKAPKLLIYDASNLQTGVPSRFSGSGSGTDFTITISSLQPEDIATYYCQQYDNLPRSFGQGTKLEI
B20 showed an EC50 of 2.42 ng/mL.

B21: C949 (antibody, V domains shown)
VH: QVQLQESGPGLVKPLQTLSLTCTVSGGSISNGDYYWSWIRQSPGKGLEWIGNIFYSGATYFNPSLKSRVTLSVDTSKNQFSLKLSSVTAADTAVYYCARVVRVLPAASVDCWGQGTLVTVSS
VL: QSALTQPRSVSGSPGQSVPISCTGTSSDVGGYDYVSWYQQHPGKAPKLIIYDVSERPSGVPDRFSGSKSGNTASLTISGLQAEDEATYYCCSYAGTSVMFGGGTKLTVL
In turn, B21 yielded a concentration giving a half-maximal response (EC50) of 2.33 ng/mL.

B22: C947 (antibody, V domains shown)
VH: QVQLQESGPGLVRPSGTLSLTCAVTGGSISSSDCWSWVRQPPGKGLEWIGEICHGRTSNYNPSLKSPVSISVDKSKNQFSLILSSVTAADKAVYYCARSSRFLPPLPDAFDLWGQGTMVTVSS
VL: QSVLTQPPSVSGAPGQRVTISCTGSSSNIGAGYDVHWYKQLPGTAPKLLIYGNTNRPSGVPGRFSGSKSGTSASLAITGLQAEDEADYFCQSYDTRLSVVFGGGTKLT
On to B22, for which the midpoint of the response, the EC50, lay at 2.08 ng/mL.

B23: C1034 (antibody, V domains shown)
VH: QLQLQESGPGLVKPSETLSLTCTVSGGSVSSNNHYWGWIRQPPGKGLEWIGSISSSGSTHHNPSLRSRVTISVDTSKNHFSLKLNSVTATDTAVYYCARVDSSGWYTGDVFDVWGQGTMVTVSS
VL: DIQMTQSPSSLSASVGDRVTITCRASQTINNYLNWYQQKPGKPPKLLIYAAFSLHSGVPSRFSGSRSGTDFTLTISSLQPEDFATYYCQHSYSTMCSFGQGTKLEIK
As to B23, the EC50 amounted to 2.77 ng/mL.

Broadly, the EC50 is the concentration at which the effect is half-maximal. A higher EC50 goes with weaker potency.
